# Measurements from US20030235557A1.
# Molecular target: mouse B6 class I antigens (D^b or K^b molecules on the surface of RMA-S cells) (mouse (C57Bl/6))
# Assay: binding of 9mer peptides within p117-139 to mouse B6 (H-2^b) class I, RMA-S assay as in Example 4
row,Binding Affinity to Mouse MHC Class I,Binder
1,1%,FPNAPYLPS [WT1 peptide P128-136 …]
2,1%,APYLPSCLE [WT1 peptide P131-139 …]
3,2%,PSQASSGQA [WT1 peptide P117-125 …]
4,1%,QARMFPNAP [WT1 peptide P124-132 …]
5,1%,PNAPYLPSC [WT1 peptide P129-137 …]
6,79%,NAPYLPSCL [WT1 peptide P130-138 …]
7,1%,ARMFPNAPY [WT1 peptide P125-133 …]
8,2%,QASSGQARM [WT1 peptide P119-127 …]
9,1%,ASSGQARMF [WT1 peptide P120-128 …]
10,2%,SQASSGQAR [WT1 peptide P118-126 …]
11,1%,SSGQARMFP [WT1 peptide P121-129 …]
12,2%,MFPNAPYLP [WT1 peptide P127-135 …]

# Molecular target: mouse B6 class I antigens (D^b or K^b molecules on the surface of RMA-S cells) (mouse (C57Bl/6))
# Assay: RMA-S class I stabilisation, peptide 25 ug/ml, flow cytometry with FITC anti-D^b or anti-K^b
row,Binding Affinity to Mouse MHC Class I (% increase of D^b or K^b on RMA-S cells),Binder
1,52%,SCLESQPAI [WT1 peptide human p136-144 …]
2,1.2%,GCNKRYFKL [WT1 peptide p329-337 …]
3,1.2%,QMTSQLECM [WT1 peptide p228-236 …]
4,5.8%,NLYQMTSQL [WT1 peptide p225-233 …]
5,2.2%,ALLPAVPSL [WT1 peptide human p10-18 …]
6,33.6%,CMTWNQMNL [WT1 peptide p235-243 …]
7,0.8%,YSSDNLYQM [WT1 peptide p221-229 …]
8,1%,NQMNLGATL [WT1 peptide p239-247 …]
